Assay results taken from patent US7999089, “RNA aptamers and the uses thereof” (Industry-Academic Cooperation Foundation, Dankook University).

Legend:
[1] = biological target: T1, TCF-1 C200 (HMG domain) (Mus musculus, UniProt Q00417 Q00417:188-388); assay: EMSA; settings: tags: GST fusion, pGEX 4T-1; label: 32P 5'-end
[2] = biological target: HuR (UniProt Q15717 Q15717:1-326); assay: EMSA; specificity control; settings: label: 32P (radiolabelled)
[3] = biological target: TCF-1 (full length) (Mus musculus, UniProt Q00417 Q00417:5-388); assay: EMSA; specificity control; settings: tags: GST fusion, pGEX 4T-1; label: 32P (radiolabelled)
[4] = biological target: GST (UniProt P08515 P08515:1-218); assay: EMSA; specificity control; settings: chain copies: 2; label: 32P (radiolabelled)
[5] = biological target: GST-β-catenin, full length (UniProt P35222 P35222:1-781); assay: EMSA; stated as binding affinity for full length β-catenin; settings: tags: GST fusion, E. coli; label: 32P (radiolabelled)
Procedure: After 8 cycles of SELEX selection, the selected sequences were digested with EcoRI and BamHI, followed by cloning into pUC19 to prepare pUC19-aptamer. To test for RNA binding, the RNA was radiolabeled as described previously (Kim & Jeong, Biochem. Biophys. Res. Commun 320:1181-1186, 2004), incubated with GST-β catenin and assayed by GST pull-down (Kim & Jeong, Biochem. Biophys. Res. Commun 320:1181-1186, 2004) or RNA-EMSA (RNA-Electrophoretic Mobility-Shift Assay) (Kim & Jeong, Biochem. Biophys. Res. Commun 320:1181-1186, 2004).

[6] = biological target: T1, TCF-1 C200 (HMG domain); assay: competition; excess unlabelled RNA did not compete with #10; text partly contradictory; settings: tags: GST fusion, pGEX 4T-1
[7] = biological target: T1, TCF-1 C200 (HMG domain); assay: competition; excess unlabelled RNA did not compete with #10; settings: tags: GST fusion, pGEX 4T-1

T1 sequence (Q00417 188-388, one chain of several): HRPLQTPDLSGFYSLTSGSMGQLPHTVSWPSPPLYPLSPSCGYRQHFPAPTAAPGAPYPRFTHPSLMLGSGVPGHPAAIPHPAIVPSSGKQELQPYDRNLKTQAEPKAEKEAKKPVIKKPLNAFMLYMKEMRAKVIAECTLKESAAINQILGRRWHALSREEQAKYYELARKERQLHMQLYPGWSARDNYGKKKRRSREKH
Sequence of HuR (Q15717 whole entry, the tested form may be a part, one chain of several): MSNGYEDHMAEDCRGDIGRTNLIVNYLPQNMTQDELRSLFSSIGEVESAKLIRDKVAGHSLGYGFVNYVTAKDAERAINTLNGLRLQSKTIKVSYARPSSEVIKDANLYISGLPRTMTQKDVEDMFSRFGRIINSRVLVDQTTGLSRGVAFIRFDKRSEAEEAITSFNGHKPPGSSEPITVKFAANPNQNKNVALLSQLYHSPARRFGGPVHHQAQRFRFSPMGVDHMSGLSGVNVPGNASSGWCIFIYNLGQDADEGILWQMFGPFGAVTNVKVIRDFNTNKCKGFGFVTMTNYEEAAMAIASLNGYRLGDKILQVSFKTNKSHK
Sequence of TCF-1 (full length) (Q00417 5-388, one chain of several): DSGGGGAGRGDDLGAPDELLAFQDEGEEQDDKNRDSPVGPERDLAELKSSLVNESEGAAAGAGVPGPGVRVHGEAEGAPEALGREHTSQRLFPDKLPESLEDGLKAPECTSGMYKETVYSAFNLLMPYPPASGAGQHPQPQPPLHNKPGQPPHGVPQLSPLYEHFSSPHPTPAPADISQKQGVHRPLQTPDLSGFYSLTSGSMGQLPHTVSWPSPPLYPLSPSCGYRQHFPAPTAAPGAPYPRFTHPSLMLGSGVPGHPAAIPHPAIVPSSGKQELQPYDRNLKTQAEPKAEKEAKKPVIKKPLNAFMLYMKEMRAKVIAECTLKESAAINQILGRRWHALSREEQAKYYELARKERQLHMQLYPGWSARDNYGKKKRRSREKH
Sequence of GST (P08515 whole entry, the tested form may be a part, one chain of several): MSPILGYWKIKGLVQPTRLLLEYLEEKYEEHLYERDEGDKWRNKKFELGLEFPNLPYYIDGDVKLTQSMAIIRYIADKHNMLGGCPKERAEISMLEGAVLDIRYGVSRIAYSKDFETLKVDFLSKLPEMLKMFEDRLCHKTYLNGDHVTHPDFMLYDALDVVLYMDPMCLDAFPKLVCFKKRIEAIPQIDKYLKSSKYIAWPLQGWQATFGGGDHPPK
Sequence of GST-β-catenin, full length (P35222 whole entry, the tested form may be a part, one chain of several): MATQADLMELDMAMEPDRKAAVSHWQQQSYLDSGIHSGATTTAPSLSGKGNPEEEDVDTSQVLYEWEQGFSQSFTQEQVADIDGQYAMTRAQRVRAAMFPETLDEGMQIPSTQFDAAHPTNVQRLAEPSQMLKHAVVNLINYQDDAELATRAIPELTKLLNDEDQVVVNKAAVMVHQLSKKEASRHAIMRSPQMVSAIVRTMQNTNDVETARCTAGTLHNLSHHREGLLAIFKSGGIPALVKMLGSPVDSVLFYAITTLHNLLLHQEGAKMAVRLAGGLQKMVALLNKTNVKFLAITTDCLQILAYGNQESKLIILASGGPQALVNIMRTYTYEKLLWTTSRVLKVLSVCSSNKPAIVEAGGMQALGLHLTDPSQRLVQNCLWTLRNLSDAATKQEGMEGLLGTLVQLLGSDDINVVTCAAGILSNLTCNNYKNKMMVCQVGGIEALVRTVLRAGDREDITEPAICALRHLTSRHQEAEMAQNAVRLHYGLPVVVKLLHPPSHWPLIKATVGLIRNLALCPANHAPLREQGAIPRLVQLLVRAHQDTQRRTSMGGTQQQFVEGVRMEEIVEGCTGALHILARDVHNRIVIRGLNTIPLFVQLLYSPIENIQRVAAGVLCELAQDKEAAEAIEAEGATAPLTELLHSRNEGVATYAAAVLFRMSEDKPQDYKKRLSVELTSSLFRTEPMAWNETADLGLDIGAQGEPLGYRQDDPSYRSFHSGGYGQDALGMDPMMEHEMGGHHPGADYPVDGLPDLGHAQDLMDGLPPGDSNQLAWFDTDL

B1: TRE (TCF responsive element) (dsDNA)
DNA 1: GGTAAGATCAAAGGG
DNA 2: CCCTTTGATCTTACC
Question: Does B1 bind [1]?
Answer: binds

B2: β-catenin RNA aptamer (ssRNA)
RNA: GGACGCGUGGUACCAGGCCGAUCUAUGGACGCUAUAGGCACACCGGAUACUUUAACGAUUGGCUAAGCUUCCGCGGGGAUC
Question: Does B2 bind [2]?
Answer: no binding

Question: Does B2 bind [3]?
Answer: no binding

Question: Does B2 bind [4]?
Answer: no binding

Question: And the Kd [5]?
Answer: 5 nM

B3: RNA #20 (ssRNA)
RNA: UUCCCGCGGUGGAAAGCGUUGGGUAGCGGCUCCGAUGGAGAGUGGUGCGCCUUGCCUGCUGGCCUUG
Question: Does B3 bind [6]?
Answer: no binding

B4: RNA #9 (ssRNA)
RNA: UGCUGACAAUUCUCGUGCCUCUCCAUGGUCUGCGGCUGAGAAGGUUCGCCAAGUUGUGGGCCGGGGUGC
Question: Does B4 bind [7]?
Answer: no binding
